Reference: publication PMC11827635 (Science Advances, 2025)

B1: αE-catenin α(CA), as it stands in the tetramer and pentamer (natural protein, mouse, UniProt P26231 1-906, looked up)
chain: MTAVHAGNINFKWDPKSLEIRTLAVERLLEPLVTQVTTLVNTNSKGPSNKKRGRSKKAHVLAASVEQATENFLEKGDKIAKESQFLKEELVVAVEDVRKQGDLMKSAAGEFADDPCSSVKRGNMVRAARALLSAVTRLLILADMADVYKLLVQLKVVEDGILKLRNAGNEQDLGIQYKALKPEVDKLNIMAAKRQQELKDVGNRDQMAAARGILQKNVPILYTASQACLQHPDVAAYKANRDLIYKQLQQAVTGISNAAQATASDDAAQHQGGSGGELAYALNNFDKQIIVDPLSFSEERFRPSLEERLESIISGAALGADSSCTEDDRRERIVAECNAVRQALQDLLSEYMGNAGRKERSDALNSAIDKMTKKTRDLRRQLRKAVMDHVSDSFLETNVPLLVLIEAAKNGNEKEVKEYAQVFREHANKLIEVANLACSISNNEEGVKLVRMSASQLEALCPQVINAALALAAKPQSKLAQENMDLFKEQWEKQVRVLTDAVDDITSIDDFLAVSENHILEDVNKCVIALQEKDVDGLDRTAGAIRGRAAEVIHVVTSEMDNYEPGVYTEKVLEATKLLSNTVMPRFTEQVEAAVEALSSDPAQPMDENEFIDASRLVYDGIRDIRKAVLMIRTPEELDDSDFETEDFDVRSRTSVQTEDDQLIAGQSARAIMAQLPQEQKAKIAEQVASFQEEKSKLDAEVSKWDDSGNDIIVLAKQMCMIMMEMTDFTRGKGPLKNTSDVISAAKKIAEAGSRMDKLGRTIADHCPDSACKQDLLAYLQRIALYCHQLNICSKVKAEVQNLGGELVVSGVDSAMSLIQAAKNLMNAVVQTVKASYVASTKYQKSQGMASLNLPAVSWKMKAPEKKPLVKREKQDETQTKIKRASQKKHVNPVQALSEFKAMDSI
notes: αE-catenin, α(CA); residues 690 to 903 are modelled in PDB 9DVA; single chain of m5, m6, m11 and m18, written for the pairs that touch; also called αE-catenin ABD (in the structure); ABD1; source: FreeStyle 293-F, co-expressed and purified within the cadherin-catenin–vinculin complex

Tests used:
[1] = biological target: B1; test: cryo-EM structure; 2.5 μM tetramer premixed with 5 μM afadin-CC, added to 0.6 μM F-actin on the grid; straight filaments 3.1 Å, curved filaments decorated along one strand 4.1 Å; conditions: both partners purified
[2] = biological target: the molecule itself; test: as above

Row | Binder | binding result [1] | binding result [2]
1 | afadin coiled-coil region (afadin-CC) (domain or fragment, mouse, UniProt Q9QZQ1-3 1393-1602, looked up, afadin, coiled-coil region (afadin-CC); residues 1508 to 1578 are modelled in PDB 9DVA; also called afadin-CC domain; source: FreeStyle 293-F, purified (anti-GFP beads, TEV, MonoQ, Superdex 200); not shown: GFP, N-terminal, cleaved) ANQAGPQSAQVAAAEWKKREEHQRWYEKEKARLEEERERKRREQERKLGQMRSQTLNPASFSPLATQAKPEKPSTLQRPQETVIRELQPQQQPRTIERKDLQYITISKEELSSGDSLSPDPWKRDAREKLEKQQQMHIVDMLSKEIHELQNKVDRTAEESDRLRKLMLEWQFQKRLQESKQKDEDDDEEEDDDVDTMLIMQRLEAERRAR | binds | –
2 | B1 | – | binds
